According to US20220348675A1 (I MAB BIOPHARMA US, published 2022):

Experiments:
[1] = molecular target: 4-1BB expressed on cells (HEK293-4-1BB, 4-1BB-Jurkat, GloResponse NFκB-luc2/4-1BB Jurkat) (UniProt Q07011); experiment: Flow cytometry on HEK293-4-1BB cells, PE anti-human IgG, MFI
[2] = molecular target: T1, human 4-1BB-His protein (human, UniProt Q07011 24-186); experiment: ELISA, coated human 4-1BB-His, detection with anti-human IgG-HRP, OD450
T1 construct: not shown: His tag

[3] = molecular target: T2, 4-1BB expressed on cells (HEK293-4-1BB, 4-1BB-Jurkat, GloResponse NFκB-luc2/4-1BB Jurkat) (UniProt Q07011 24-255, limits assumed); experiment: Flow cytometry on HEK293-4-1BB cells, PE anti-human IgG, MFI
T2 construct: whole, on cells; also called HEK293 expressed 4-1BB; HEK293-4-1BB cells

[4] = molecular target: T3, human 4-1BB-Fc protein (human, UniProt Q07011 24-186); experiment: ELISA, coated human 4-1BB-Fc
T3 construct: not shown: Fc part

[5] = molecular target: human 4-1BB-biotin protein (human, UniProt Q07011 24-186, limits assumed); experiment: Dual antigen capture ELISA: coated CLDN18.2 VLP, antibody titrated, then human 4-1BB-biotin at 1 ug/ml and streptavidin-HRP, OD450
Sequence of human 4-1BB-biotin protein (Q07011 24-186 limits assumed): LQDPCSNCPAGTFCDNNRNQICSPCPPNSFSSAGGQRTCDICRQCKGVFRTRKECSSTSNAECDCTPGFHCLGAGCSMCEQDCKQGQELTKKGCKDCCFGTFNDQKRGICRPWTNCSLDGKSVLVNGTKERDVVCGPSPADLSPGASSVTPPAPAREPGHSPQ

T1 sequence (Q07011 24-186 limits assumed): as above
T3 sequence (Q07011 24-186 limits assumed): as above
T2 sequence (Q07011 24-255 limits assumed): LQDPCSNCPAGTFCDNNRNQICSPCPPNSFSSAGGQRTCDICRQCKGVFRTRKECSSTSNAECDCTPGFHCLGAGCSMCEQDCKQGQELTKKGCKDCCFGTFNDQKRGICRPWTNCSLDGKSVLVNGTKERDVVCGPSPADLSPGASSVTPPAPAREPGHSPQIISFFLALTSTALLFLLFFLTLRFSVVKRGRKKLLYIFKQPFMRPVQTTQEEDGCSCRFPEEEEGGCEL
Sequence of 4-1BB expressed on cells (HEK293-4-1BB, 4-1BB-Jurkat, GloResponse NFκB-luc2/4-1BB Jurkat) (UniProt Q07011) (Q07011 24-255 limits assumed): as above

**Q.** What does the source list for “urelumab (BMUR) anti-4-1BB monoclonal antibody”?
**A.** EC50 (read off the curve) [1]: 0.06 nM; EC50 (read off the curve) [2]: 0.6 nM

B1: 1A10 anti-4-1BB monoclonal antibody (antibody, V domains shown)
VH: EVQLLESGGGLVQPGGSLRLSCAASGFTFSSYDMSWVRQAPGKGLEWVSWISYSGGSIYYADSVKGRFTISRDNSKNTLYLQMNSLRAEDTAVYYCARDAQRNSMREFDYWGQGTLVTVSS
VL: QSVLTQPPSASGTPGQRVTISCSGSSSNIGNNYVTWYQQLPGTAPKLLIYADSHRPSGVPDRFSGSKSGTSASLAISGLRSEDEADYYCATWDYSLSGYVFGGGTKLTVL
**Q.** With B1 as the molecule, how does the “EC50 (read off the curve)” value [3] read?
**A.** ~0.2 nM

**Q.** What about the “EC50 (read off the curve)” value [2] of the same molecule?
**A.** ~0.5 nM

B2: 41B01.02 anti-4-1BB antibody (antibody, V domains shown)
VH: EVQLLESGGGLVQPGGSLRLSCAASGFTFSSYDMSWVRQAPGKGLEWVSWISYSGGSIYYADSVKGRFTISRDNSKNTLYLQMNSLRAEDTAVYYCARDAQRQSMREFDYWGQGTLVTVSS
VL: QSVLTQPPSASGTPGRRVTISCSGSSSNIGNNYVTWYQQLPGTAPKLLIYADSHRPSGVPDRFSGSKSGTSASLAISGLRSEDEADYYCATWDYSLSGYVFGGGTKLTVL
notes: Full human anti-4-1BB antibody
**Q.** Does B2 bind [4]?
**A.** binds

B3: 72C1B6A3 anti-CLDN18.2 monoclonal antibody (antibody, V domains shown)
VH: QVQLVQSGAEVKKPGASVKVSCKASGYTFTTYPIEWVRQAPGQRLEWMGNFHPYNDDTKYNEKFKGRVTITRDTSASTAYMELSSLRSEDTAVYYCARRAYGYPYAMDYWGQGTLVTVSS
VL: DIVMTQSPDSLAVSLGERATINCKSSQSLLNAGNQKNYLTWYQQKPGQPPKLLIYRASSRESGVPDRFSGSGSGTDFTLTISSLQAEDVAVYYCQNDYIYPYTFGGGTKLEIK
notes: also called CLDN18.2 mAb 72C1B6A3
**Q.** Does B3 bind [5]?
**A.** no binding (tested: 100 nM)
